Measurements: publication PMC7040040 (2020)
Non-standard residues stand in square brackets, D forms with d. No end group written: not given here. pGlu = O=C1CC[C@@H](C(=O)O)N1

Columns and labels:
[1] = biological target: T1, PBD-C06 (final humanized, de-immunized antibody with the complement mutation K322A) (human); assay: SPR
[2] = biological target: T1, PBD-C06 (final humanized, de-immunized …); assay: SPR; remark: listed apart in the source

T1 sequence (chain, as listed by the source K322A, chain 1 of 2): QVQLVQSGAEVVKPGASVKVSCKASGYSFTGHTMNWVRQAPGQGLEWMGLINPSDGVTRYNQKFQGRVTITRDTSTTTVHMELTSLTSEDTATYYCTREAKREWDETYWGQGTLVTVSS
T1 sequence (chain, as listed by the source K322A, chain 2 of 2): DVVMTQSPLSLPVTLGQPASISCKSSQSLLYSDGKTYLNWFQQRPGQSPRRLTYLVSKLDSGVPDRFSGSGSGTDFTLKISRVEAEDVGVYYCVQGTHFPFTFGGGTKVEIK

| Kd [1] | koff [2] | Binder |
| --- | --- | --- |
| 7.86 nM | 0.00393 s⁻¹ | [pGlu]FRHDSGYEVHHQKLV [pE3-Aβ(3–18) monomer] |
| > 50000 nM |  | FRHDSGYEVHHQKLV [Aβ(4–18) monomer] |
